Here are results for 33 molecules from patent publication US7611713.

Read-outs that look alike come from different tables or passages of the source.

For experiment [1], the target named is HLA-A*0201 (human).
The target in experiment [2] is HLA-DR2w2β2 (DRB5*0101) (human).
The target of experiment [3] is HLA-DR5w11 (DRB1*1101) (human).
The target in experiment [4] is HLA-DR6w19 (DRB1*1302) (human).
For experiment [5], the target named is HLA-A*0201 (human). In words: competitive inhibition of radiolabeled standard peptide binding to purified HLA.
The next experiment deals with HLA-B*0702 (human). In words: competition with radiolabeled standard peptide for purified HLA, gel filtration.
For experiment [6], the target named is HLA-DR1 (DRB1*0101) (human).
Experiment [7] addresses HLA-DR7 (DRB1*0701) (human).
A further experiment concerns the target HLA-B*5101 (human). In words: competition with radiolabeled standard peptide for purified HLA, gel filtration. As to conditions: remark: other sources report otherwise. For orientation: SEC sorts molecules by how far they enter the pores of the column.
The target of the next experiment is HLA-B*5401 (human). The description is as above. As to conditions: remark: other sources report otherwise.
In experiment [8] the target is HLA-A*1101 (human).
In experiment [9] the target is HLA-DR1 (DRB1*0101) (human). In words: HLA class II peptide binding assay, ratio to standard peptide. As to conditions: remark: other sources report otherwise.
Experiment [10] addresses HLA-DR4w4 (DRB1*0401) (human). The experiment is described as above. As to conditions: remark: other sources report otherwise.
Experiment [11] has as its target HLA-DR5w11 (DRB1*1101) (human). The experiment is described as above. As to conditions: remark: other sources report otherwise.
Experiment [12] has as its target HLA-DR7 (DRB1*0701) (human). Described as above. As to conditions: remark: other sources report otherwise.
Experiment [13] deals with HLA-DR1 (DRB1*0101) (human). In words: competition with standard peptide for purified HLA-DR, relative to standard.
For experiment [14], the target named is HLA-DR4w4 (DRB1*0401) (human). The description is as above.
Experiment [15] deals with HLA-DR5w11 (DRB1*1101) (human). The description is as above.
The target of experiment [16] is HLA-DR7 (DRB1*0701) (human). The description is as above.
Experiment [17] addresses HLA-DR2w2β1 (DRB1*1501) (human). Description: HLA class II peptide binding assay, ratio to standard peptide.
Experiment [18] concerns the target HLA-DR3 (DRB1*0301) (human). Described as above. As to conditions: remark: other sources report otherwise.
In experiment [19] the target is HLA-DR4w15 (DRB1*0405) (human). The description is as above. As to conditions: remark: other sources report otherwise.
For experiment [20], the target named is HLA-DR6w19 (DRB1*1302) (human). Described as above. As to conditions: remark: other sources report otherwise.
The target of experiment [21] is HLA-DRw53 (DRB4*0101) (human). In words: competition with standard peptide for purified HLA-DR, relative to standard.
The target of experiment [22] is HLA-B*0701 (as printed in the head of Table XXII) (human). In words: competitive inhibition of radiolabeled standard peptide binding to purified HLA.
The target of experiment [23] is HLA-A*1101 (human). This is another data set of the same source.
The target of experiment [24] is HLA-DR2w2β1 (DRB1*1501) (human).
Where [25] appears, read: remark: other sources report otherwise.

Consider QLLWFHISCL (modifications not checked) [HBV NUC 99 peptide … (peptide 1142.03)], for which the binding affinity ratio (IC50 of standard peptide / IC50 of test peptide) in the experiment with HLA-A*0201 (human) [1] was 0.006.
For the molecule VLGGCRHK (modifications not checked) [HBV X 133 peptide VLGGCRHK], the binding affinity ratio (IC50 of standard peptide / IC50 of test peptide) was -0.0005 with HLA-A*3101 (human) and -0.0009 with HLA-A*3301 (human).
As to STLPETTVV (modifications not checked) [HBV NUC 141 peptide …], the binding affinity ratio (IC50 of standard peptide / IC50 of test peptide) with HLA-A*0201 (human) [1] turned out to be 0.0019.
As to VGLLGFAAPFTQCGY (modifications not checked), the results for the binding affinity ratio (IC50 of standard peptide / IC50 of test peptide) in experiment [2], in [3] and in experiment [4] were 0.0008, -0.0004 and -0.0001, respectively.
With LLDYQGML (modifications not checked) [HBV ENV 260 peptide LLDYQGML], in the experiment with HLA-A*0201 (human) [1], the binding affinity ratio (relative to standard peptide) was 0.0004.
As to YVPSALNPA (modifications not checked) [HBV POL 768 peptide …], the binding affinity ratio (IC50 of standard peptide / IC50 of test peptide) with HLA-A*0201 (human) [5] worked out at 0.0039.
For the molecule LIFLLVLL (modifications not checked) [HBV ENV 254 peptide LIFLLVLL], the binding affinity ratio (relative to standard peptide) with HLA-A*0201 (human) [1] was 0.0025.
As to LSFLPSDFF (modifications not checked) [HBV NUC 45 peptide …], in the experiment with HLA-A*0301 (human), the binding affinity ratio (IC50 of standard peptide / IC50 of test peptide) amounted to 0.0006.
As for VPNLQSLTNL (modifications not checked) [HBV POL 398 peptide …], in the experiment with HLA-B*0702 (human), the binding affinity ratio (IC50 of standard peptide / IC50 of test peptide) was found to be 0.0006.
Turning to DSWWTSLNF (modifications not checked) [HBV ENV 207 … (peptide 20.0120)], in the experiment with HLA-A*0301 (human), the binding affinity ratio was determined as 0.0006.
For WPKFAVPNLQSLTNL (modifications not checked), the figures for the binding affinity ratio (IC50 of standard peptide / IC50 of test peptide) in experiment [6], in [3] and in [7] were 0.0007, 0.0002 and 0.0008, respectively.
Take SVRFSWLSLL (modifications not checked) [HBV ENV 330 peptide …]: in the experiment with HLA-A*0201 (human) [1], the binding affinity ratio (IC50 of standard peptide / IC50 of test peptide) was 0.0004.
On to RDLLDTASALYREAL (modifications not checked), for which the values for the binding affinity ratio (IC50 of standard peptide / IC50 of test peptide) in [6] (setting [25]) and in experiment [7] (setting [25]) were 0.0001 and 0.077, respectively.
WPKFAVPNL (modifications not checked) [HBV POL 393 peptide …]: the binding affinity ratio (IC50 of standard peptide / IC50 of test peptide) worked out at 0.0054 with HLA-B*0702 (human) (setting [25]), 0.0016 with HLA-B*5101 (human) and 0.0015 in the experiment with HLA-B*5401 (human).
Regarding LDTASALYR (modifications not checked) [HBV NUC 60 peptide …], the binding affinity ratio (IC50 of standard peptide / IC50 of test peptide) with HLA-A*1101 (human) [8] is -0.0002.
Take NAPILSTLPETTVVR (modifications not checked): the binding affinity ratio (IC50 of standard peptide / IC50 of test peptide) in experiment [9] was 0.0009; in experiment [10] it was -0.0007; in [11], -0.0002; in experiment [12], 0.0005.
Take ILRGTSFVY (modifications not checked) [HBV POL 771 peptide …]: in the experiment with HLA-A*0301 (human) (setting [25]), the binding affinity ratio (IC50 of standard peptide / IC50 of test peptide) was determined as 0.044.
As to LLDTASALYR (modifications not checked) [HBV NUC 30 peptide …], the binding affinity ratio (IC50 of standard peptide / IC50 of test peptide) with HLA-A*0301 (human) was found to be 0.005.
For the molecule IVGLLGFAAPFTQCG (modifications not checked), the binding affinity ratio (IC50 of standard peptide / IC50 of test peptide) in [13] was 0.02; in experiment [14], -0.0007; in experiment [15], -0.0002; in experiment [16], 0.0009.
As for RVTGGVFLV (modifications not checked) [HBV POL 357 peptide …], in the experiment with HLA-A*0201 (human) [1] (setting [25]), the binding affinity ratio (IC50 of standard peptide / IC50 of test peptide) was determined as 0.0041.
Take LLVLQAGFF (modifications not checked) [HBV ENV 175 peptide …]: the binding affinity ratio (IC50 of standard peptide / IC50 of test peptide) with HLA-A*0301 (human) came to 0.0006.
For PLPIHTAELLAACFA (modifications not checked), the binding affinity ratio (IC50 of standard peptide / IC50 of test peptide) in experiment [9] is 0.0046; in experiment [12], -0.0003.
For the molecule DLNLGNLNVSIPWTH (modifications not checked), the binding affinity ratio (IC50 of standard peptide / IC50 of test peptide) in experiment [16] came out at 0.001.
As for LLGCAANWI (modifications not checked) [HBV POL 752 peptide …], in the experiment with HLA-A*0201 (human) [1], the binding affinity ratio (relative to standard peptide) was determined as 0.0011.
As for LAQFTSAICSVVRRA (modifications not checked), the binding affinity ratio (IC50 of standard peptide / IC50 of test peptide) is 0.0065 in experiment [17]; -0.0009 in experiment [18]; 0.028 in experiment [19]; 0.0076 in experiment [11]; 0.001 in experiment [20]; 0.028 in experiment [12].
For the molecule ASKLCLGWLWGMDID (modifications not checked), the results for the binding affinity ratio (IC50 of standard peptide / IC50 of test peptide) in [13], in experiment [15] and in [21] were 0.0002, -0.0002 and 0.001, respectively.
Regarding HLNPNKTKR (modifications not checked) [HBV POL 569 peptide …], the binding affinity ratio (IC50 of standard peptide / IC50 of test peptide) with HLA-A*0301 (human) came to 0.0025.
The term IC50 denotes the concentration that gives 50% inhibition. The low end stands for higher potency, the high end for lower potency. In turn, MPKAGLLII (modifications not checked) [MAGE3 196] had an IC50 in [22] of 0.94 µM.
Regarding AEDLNLGNLNVSIPW (modifications not checked), the binding affinity ratio (IC50 of standard peptide / IC50 of test peptide) was 0.0001 in experiment [13], -0.0007 in experiment [14], -0.0002 in experiment [15] and -0.0003 in experiment [16].
As for KAGILYKR (modifications not checked) [HBV POL 153 peptide KAGILYKR], the binding affinity ratio (IC50 of standard peptide / IC50 of test peptide) with HLA-A*1101 (human) [8] was -0.0002.
For TTVVRRRGR (modifications not checked) [HBV NUC 175 peptide …], the binding affinity ratio (IC50 of standard peptide / IC50 of test peptide) came out at 0.0005 in the experiment with HLA-A*1101 (human) [23], 0.25 with HLA-A*3101 (human), 0.14 in the experiment with HLA-A*3301 (human) and 0.0095 with HLA-A*6801 (human).
Turning to VGNFTGLYSSTVPVF (modifications not checked), the values for the binding affinity ratio (IC50 of standard peptide / IC50 of test peptide) in experiment [24] and in experiment [7] (setting [25]) were 0.01 and 0.56, respectively.
Turning to SLNFMGYVI (modifications not checked) [HBV POL 581 peptide …], the binding affinity ratio (IC50 of standard peptide / IC50 of test peptide) in the experiment with HLA-A*0201 (human) [1] came to 0.0038.
